Among the data in patent US20170266254A1 (AILERON THERAPEUTICS, published 2017) are IC50 values, retold here.

Bridges are numbered along the chain shown (N, C = ends). [ ]: non-standard residue; d: D form. R8 = C=CCCCCCC[C@@](C)(N)C(=O)O; S5 = C=CCCC[C@](C)(N)C(=O)O

For the test, the target named is T1, C-terminally 6x Histidine-tagged Beta-Catenin (aa 134-668, 59 KD) (UniProt P35222 134-668).
T1 construct: range 134-668; Armadillo repeat region
T1 sequence: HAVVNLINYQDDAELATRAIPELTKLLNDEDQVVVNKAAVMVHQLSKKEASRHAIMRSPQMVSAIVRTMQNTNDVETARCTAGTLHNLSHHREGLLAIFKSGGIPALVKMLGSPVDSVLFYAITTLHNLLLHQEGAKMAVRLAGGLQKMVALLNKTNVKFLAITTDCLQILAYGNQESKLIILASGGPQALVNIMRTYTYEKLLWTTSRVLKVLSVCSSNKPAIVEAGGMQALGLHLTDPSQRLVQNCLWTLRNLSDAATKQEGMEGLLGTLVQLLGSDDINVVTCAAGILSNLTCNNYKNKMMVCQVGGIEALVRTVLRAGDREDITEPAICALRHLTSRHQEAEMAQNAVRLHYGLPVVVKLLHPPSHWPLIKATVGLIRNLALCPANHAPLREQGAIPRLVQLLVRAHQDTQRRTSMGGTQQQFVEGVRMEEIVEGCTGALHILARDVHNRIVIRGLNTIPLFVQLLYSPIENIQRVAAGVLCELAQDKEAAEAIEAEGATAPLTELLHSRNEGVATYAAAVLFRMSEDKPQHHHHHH
Put plainly: competitive fluorescence polarization, FAM-labelled linear probe as competitor, His-tagged beta-catenin 134-668. A digest of the protocol: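 FP competition in 25 mM Tris-HCl pH 7.5, 200 mM NaCl, 5 mM CHAPS, 2 mM DTT at room temperature. Competitor peptides at 40–0.7 μM 2× working range, constant DMSO. Probe (benchmark peptide with N-terminal FAM via β-Ala spacer) from 25 nM 10× stock. Read after 3 h in the dark, ex 485/em 528 nm.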
(Fluorescence polarisation rises when a labelled molecule tumbles more slowly, as on binding a larger partner.)

B1: SP42 (peptide)
peptide: Ac-SA[S5]RNL[S5]DVKSSLV-NH2
modifications: staple 3-7
SMILES: CC(=O)N[C@@H](CO)C(=O)N[C@@H](C)C(=O)N[C@@]1(C)CCCC=CCCC[C@@](C)(C(=O)N[C@@H](CC(=O)O)C(=O)N[C@H](C(=O)N[C@@H](CCCCN)C(=O)N[C@@H](CO)C(=O)N[C@@H](CO)C(=O)N[C@@H](CC(C)C)C(=O)N[C@H](C(N)=O)C(C)C)C(C)C)NC(=O)[C@H](CC(C)C)NC(=O)[C@H](CC(N)=O)NC(=O)[C@H](CCCNC(=N)N)NC1=O
notes: also called Ac-SA$RNL$DVKSSLV-NH2
The term IC50 denotes the concentration that inhibits the measured activity by half. As for B1, the IC50 was not below 100 µM.

B2: SP43 (peptide)
peptide: Ac-SA[S5]RDL[S5]NVKSSLV-NH2
modifications: staple 3-7
SMILES: CC(=O)N[C@@H](CO)C(=O)N[C@@H](C)C(=O)N[C@@]1(C)CCCC=CCCC[C@@](C)(C(=O)N[C@@H](CC(N)=O)C(=O)N[C@H](C(=O)N[C@@H](CCCCN)C(=O)N[C@@H](CO)C(=O)N[C@@H](CO)C(=O)N[C@@H](CC(C)C)C(=O)N[C@H](C(N)=O)C(C)C)C(C)C)NC(=O)[C@H](CC(C)C)NC(=O)[C@H](CC(=O)O)NC(=O)[C@H](CCCNC(=N)N)NC1=O
notes: also called Ac-SA$RDL$NVKSSLV-NH2
With B2, the IC50 was not below 100 µM.

B3: SP5 (peptide)
peptide: Ac-RNLADVKS[S5]LVN[S5]S-NH2
modifications: staple 9-13
SMILES: CC(=O)N[C@@H](CCCNC(=N)N)C(=O)N[C@@H](CC(N)=O)C(=O)N[C@@H](CC(C)C)C(=O)N[C@@H](C)C(=O)N[C@@H](CC(=O)O)C(=O)N[C@H](C(=O)N[C@@H](CCCCN)C(=O)N[C@@H](CO)C(=O)N[C@@]1(C)CCCC=CCCC[C@@](C)(C(=O)N[C@@H](CO)C(N)=O)NC(=O)[C@H](CC(N)=O)NC(=O)[C@H](C(C)C)NC(=O)[C@H](CC(C)C)NC1=O)C(C)C
With B3, the IC50 is not below 100 µM.

B4: SP50 (peptide)
peptide: LGANDELISFADEGAQEEKSS
chain: AARDLANVKSSLV
modifications: not fully specified; N-terminal acetyl; C-terminal amide; PEG3 = NH-(PEG)3-COOH (16 atoms) linker between the two peptide parts; $ = (S)-alpha-(2'-pentenyl)alanine at positions 11 and 15 of the first part and at positions 2 and 6 of the second part, each pair joined by an all-carbon crosslinker with one double bond
notes: The two peptide parts are joined by a non-peptide PEG3 spacer, not by a peptide bond
As for B4, the IC50 was found to be 1.1 µM.

B5: SP54 (peptide)
peptide: Ac-SA[S5]RDL[S5]NVKSSLV-NH2
modifications: staple 3-7
SMILES: CC(=O)N[C@@H](CO)C(=O)N[C@@H](C)C(=O)N[C@@]1(C)CCCC=CCCC[C@@](C)(C(=O)N[C@@H](CC(N)=O)C(=O)N[C@H](C(=O)N[C@@H](CCCCN)C(=O)N[C@@H](CO)C(=O)N[C@@H](CO)C(=O)N[C@@H](CC(C)C)C(=O)N[C@H](C(N)=O)C(C)C)C(C)C)NC(=O)[C@H](CC(C)C)NC(=O)[C@H](CC(=O)O)NC(=O)[C@H](CCCNC(=N)N)NC1=O
notes: as for B2
Consider B5, for which the IC50 is not below 100 µM.

B6: SP55 (peptide)
peptide: Ac-SA[S5]RNL[S5]DVKSSLV-NH2
modifications: staple 3-7
SMILES: CC(=O)N[C@@H](CO)C(=O)N[C@@H](C)C(=O)N[C@@]1(C)CCCC=CCCC[C@@](C)(C(=O)N[C@@H](CC(=O)O)C(=O)N[C@H](C(=O)N[C@@H](CCCCN)C(=O)N[C@@H](CO)C(=O)N[C@@H](CO)C(=O)N[C@@H](CC(C)C)C(=O)N[C@H](C(N)=O)C(C)C)C(C)C)NC(=O)[C@H](CC(C)C)NC(=O)[C@H](CC(N)=O)NC(=O)[C@H](CCCNC(=N)N)NC1=O
notes: as for B1
As for B6, the IC50 is not below 100 µM.

B7: SP8 (peptide)
peptide: Ac-RDLANVKS[S5]LVN[S5]S-NH2
modifications: staple 9-13
SMILES: CC(=O)N[C@@H](CCCNC(=N)N)C(=O)N[C@@H](CC(=O)O)C(=O)N[C@@H](CC(C)C)C(=O)N[C@@H](C)C(=O)N[C@@H](CC(N)=O)C(=O)N[C@H](C(=O)N[C@@H](CCCCN)C(=O)N[C@@H](CO)C(=O)N[C@@]1(C)CCCC=CCCC[C@@](C)(C(=O)N[C@@H](CO)C(N)=O)NC(=O)[C@H](CC(N)=O)NC(=O)[C@H](C(C)C)NC(=O)[C@H](CC(C)C)NC1=O)C(C)C
Consider B7, for which the concentration for half-maximal inhibition (IC50) is not below 100 µM.

B8: SP51 (peptide)
peptide: LGANDELISFADEGAQEEKSS
chain: AARDLANVKSSLV
modifications: not fully specified; N-terminal acetyl; C-terminal amide; PEG4 = NH-(PEG)4-COOH (19 atoms) linker between the two peptide parts; $ = (S)-alpha-(2'-pentenyl)alanine at positions 11 and 15 of the first part and at positions 2 and 6 of the second part, each pair joined by an all-carbon crosslinker with one double bond
notes: The two peptide parts are joined by a non-peptide PEG4 spacer, not by a peptide bond
As for B8, the IC50 turned out to be 0.603 µM.

B9: SP56 (peptide)
peptide: Ac-RDLA[S5]VVS[S5]LVNES-NH2
modifications: staple 5-9
SMILES: CC(=O)N[C@@H](CCCNC(=N)N)C(=O)N[C@@H](CC(=O)O)C(=O)N[C@@H](CC(C)C)C(=O)N[C@@H](C)C(=O)N[C@@]1(C)CCCC=CCCC[C@@](C)(C(=O)N[C@@H](CC(C)C)C(=O)N[C@H](C(=O)N[C@@H](CC(N)=O)C(=O)N[C@@H](CCC(=O)O)C(=O)N[C@@H](CO)C(N)=O)C(C)C)NC(=O)[C@H](CO)NC(=O)[C@H](C(C)C)NC(=O)[C@H](C(C)C)NC1=O
notes: also called Ac-RDLA$VVS$LVNES-NH2
Consider B9, for which the IC50 is not below 100 µM.

B10: SP6 (peptide)
peptide: Ac-RDLA[S5]VKS[S5]LVNQS-NH2
modifications: staple 5-9
SMILES: CC(=O)N[C@@H](CCCNC(=N)N)C(=O)N[C@@H](CC(=O)O)C(=O)N[C@@H](CC(C)C)C(=O)N[C@@H](C)C(=O)N[C@@]1(C)CCCC=CCCC[C@@](C)(C(=O)N[C@@H](CC(C)C)C(=O)N[C@H](C(=O)N[C@@H](CC(N)=O)C(=O)N[C@@H](CCC(N)=O)C(=O)N[C@@H](CO)C(N)=O)C(C)C)NC(=O)[C@H](CO)NC(=O)[C@H](CCCCN)NC(=O)[C@H](C(C)C)NC1=O
notes: also called Ac-RDLA$VKS$LVNQS-NH2
As to B10, the 50% inhibitory concentration (IC50) is not below 100 µM.

B11: SP7 (peptide)
peptide: Ac-RDLA[R8]VKSSLV[S5]QS-NH2
modifications: staple 5-12
SMILES: CC(=O)N[C@@H](CCCNC(=N)N)C(=O)N[C@@H](CC(=O)O)C(=O)N[C@@H](CC(C)C)C(=O)N[C@@H](C)C(=O)N[C@]1(C)CCCCCCC=CCCC[C@@](C)(C(=O)N[C@@H](CCC(N)=O)C(=O)N[C@@H](CO)C(N)=O)NC(=O)[C@H](C(C)C)NC(=O)[C@H](CC(C)C)NC(=O)[C@H](CO)NC(=O)[C@H](CO)NC(=O)[C@H](CCCCN)NC(=O)[C@H](C(C)C)NC1=O
notes: also called Ac-RDLA$r8VKSSLV$QS-NH2
With B11, the IC50 is not below 100 µM.
